Experimental data taken from patent US20050119187A1 (BOARD OF SUPERVISORS OF LOUISIANA STATE UNIVERSITY AND …, published 2005).
*1 amine or outer side, *2 acyl side, *3 side chain or, on linkers, in order; H or OH if unused. Where no end group is shown, it is not given here. [ ]: non-standard residue; d: D form. Dbzg = C-alpha,alpha-dibenzylglycine, O=C(C(Cc1ccccc1)(Cc1ccccc1)N[*:1])[*:2]; Dibg = C-alpha,alpha-diisobutylglycine, CC(C)CC(CC(C)C)(N[*:1])C(=O)[*:2]; Dpg = CCCC(N)(CCC)C(=O)O

B1: AMY-2: (Lys)7-Dibg-Val-Dbzg-Phe-Dpg-NH2 (peptide)
peptide: KKKKKKK[Dibg]V[Dbzg]F[Dpg]-NH2
modifications: N-terminus assumed
SMILES: CCCC(CCC)(NC(=O)[C@H](Cc1ccccc1)NC(=O)C(Cc1ccccc1)(Cc1ccccc1)NC(=O)[C@@H](NC(=O)C(CC(C)C)(CC(C)C)NC(=O)[C@H](CCCCN)NC(=O)[C@H](CCCCN)NC(=O)[C@H](CCCCN)NC(=O)[C@H](CCCCN)NC(=O)[C@H](CCCCN)NC(=O)[C@H](CCCCN)NC(=O)[C@@H](N)CCCCN)C(C)C)C(N)=O
notes: Synthetic beta-strand mimic based on Abeta16-21 (KLVFFA), with the oligolysine stretch at the N-terminus

How the values were obtained:
[1] = biological target: amyloidogenic peptide Aβ10-35 (UniProt P05067); experiment: cell-based or functional assay
Sequence of amyloidogenic peptide Aβ10-35 (P05067 681-706): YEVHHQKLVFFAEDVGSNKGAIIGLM

[2] = biological target: the molecule itself; experiment: preliminary studies, self-aggregation (data not shown)

| Molecule | inhibition of aggregation (amyloid fibril formation) [1] | binding result [2] |
| --- | --- | --- |
| AMY-1: Lys-Dibg-Val-Dbzg-Phe-Dpg-(Lys)6-NH2 (peptide) | 5 µM |  |
| B1 |  | binds |
